Measured values taken from patent US20110243928A1 (published 2011).

Legend:
[1] = target: T1, E. coli-expressed recombinant det-1 tagged human IL-13 (human, UniProt P35225 35-146); assay: competition ELISA: inhibition of det-1 tagged human IL-13 binding to human IL-13Rα2-Fc
T1 construct: also called Det-1 tagged human IL-13 (made in-house); not shown: det-1 tag

[2] = target: T2, E. coli-expressed recombinant human IL-4 (human, UniProt P05112 25-153); assay: human IL-4 binding sandwich ELISA
T2 sequence (looked up): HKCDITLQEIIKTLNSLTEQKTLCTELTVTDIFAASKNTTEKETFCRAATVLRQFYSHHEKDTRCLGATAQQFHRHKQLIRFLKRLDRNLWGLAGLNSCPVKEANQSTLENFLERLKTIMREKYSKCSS

[3] = target: T3, E. coli-expressed recombinant human IL-13 (human, UniProt P35225 35-146); assay: BIAcore analysis 1, antibody captured, IL-13 in solution
T3 construct: Untagged E. coli-expressed human IL-13; also called hIL-13; human IL13 (CA)
Protocol: Completed for both human and cynomolgus IL-13 (E. coli-expressed protein). The quoted KD values are the average from 5 different IL-13 concentration curves (done in triplicate). Note that mass transfer issues were apparent in this analysis and that a modified experimental protocol (to correct for this issue) has been completed in analysis 4 (where no mass transfer issues were present).
The kinetics analysis was performed on a Biacore 3000 machine, using an antibody capture method. Briefly, for the chimeric 6A1 and humanised antibody constructs Protein A capture was used, whilst for the parental murine 6A1 antibody, capture was by a anti-mouse Fc antibody supplied by Biacore. Briefly, the method is as follows, the capture ligand was immobilised to a CM5 Biosensor chip by primary amine coupling in accordance with Biacore standard protocols and using the reagents supplied in Biacores' primary amine coupling kit. The method involves activation CM5 sensor surface by passing a solution of 50 mM N-hydroxy-succinimide (NHS) and 200 mM N-ethyl-N′-dimethylaminopropyl […] (EDC) over the surface. Then, the capture ligand (dissolved in acetate buffer pH5 or pH4.5) was coupled to the activated sensor surface after which any still activated esters were blocked by an injection of 1M ethanolamine hydrochloride, pH8.5.
The candidate antibody was then passed over the Protein A or anti-mouse Fc antibody surface, depending on whether it was human or mouse in origin and captured. Once a stable binding signal was seen IL13 was passed over the captured antibody surface at various defined concentrations. The subsequent binding curves were analysed with Biacore analysis software BIAeval v4.1 to determine kinetics. The experiments were carried out using Biacore HBS-EP buffer.

[4] = target: T1, E. coli-expressed recombinant det-1 …; assay: competition ELISA: inhibition of det-1 tagged human IL-13 binding to human IL-13Rα1-Fc
[5] = target: T1, E. coli-expressed recombinant det-1 …; assay: BIAcore
[6] = target: T4, E. coli-expressed recombinant cynomolgus IL-13 (cynomolgus, UniProt Q5I6E4 21-132 (Macaca thibetana entry)); assay: BIAcore
T4 construct: also called cyno IL13 (CA); cIL-13
T4 chain: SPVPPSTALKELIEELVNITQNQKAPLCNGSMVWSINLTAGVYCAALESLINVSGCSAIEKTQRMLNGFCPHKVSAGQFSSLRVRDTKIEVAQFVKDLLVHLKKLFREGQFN

[7] = target: T3, E. coli-expressed recombinant human …; assay: BIAcore
[8] = target: T4, E. coli-expressed recombinant …; assay: cell-based or functional assay
[9] = target: E. coli-expressed recombinant Q130 human IL-13 (human, UniProt P35225 35-146, limits assumed); assay: cell-based or functional assay
[10] = target: T3, E. coli-expressed recombinant human …; assay: cell-based or functional assay
[11] = target: mammalian-expressed (CHO cell) human IL-13 (human, UniProt P35225 35-146, limits assumed); assay: cell-based or functional assay
16 mer peptide 30 = target: T5, 16 mer peptide 30 (N-terminal biotin; C-terminal amide); assay: 16 mer peptide ELISA
T5 peptide: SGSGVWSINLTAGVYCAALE
From the text: (§1) Biotinylated 16 mer peptides offset by 4 were synthesised to map the location of the B cell epitope recognised by mAb 6A1 on both human and cynomolgus IL-13. An ELISA method was used to detect binding of immobilised biotinylated peptide to the parental mAb 6A1.

16 mer peptide 44 = target: T6, 16 mer peptide 44 (cynomolgus, N-terminal biotin; C-terminal free acid); assay: 16 mer peptide ELISA
T6 construct: also called 44 (Control)
T6 peptide: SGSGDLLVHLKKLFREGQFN
From the text: as §1

[12] = target: T7, 16mer biotinylated human IL-13 peptide number 24 (human, N-terminal biotin; C-terminal amide); assay: BIAcore analysis 3, antibody over immobilised biotinylated peptide 24
T7 construct: format Biotin-SGSG-PEPTIDE-amide; also called Peptide 24
T7 peptide: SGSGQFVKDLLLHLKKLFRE
Protocol: Completed for the 16mer biotinylated human IL-13 peptide number 24 (identified as the linear binding epitope for parental mAb 6A1, see section 6.7). Note that the absolute KD values obtained for binding to peptide ligands are often quite different to those seen for binding to whole protein targets.
The kinetics analysis was performed on a Biacore 3000 machine using direct binding of antibody to immobilised IL-13 peptide. Briefly, IL-13 biotinylated peptide was captured using a Biacore SA (strepavidin) Biosensor chip. The antibodies were then passed over the sensor surface at various concentrations. The subsequent binding curves were analysed with Biacore analysis software BIAeval 4.1 to determine kinetics. The experiment was carried out using Biacore HBS-EP buffer

[13] = target: T3, E. coli-expressed recombinant human …; assay: BIAcore, summary of the analyses
[14] = target: T3, E. coli-expressed recombinant human …; assay: BIAcore analysis 2

T1 sequence (P35225 other isoform, or with tags, fused parts or gaps): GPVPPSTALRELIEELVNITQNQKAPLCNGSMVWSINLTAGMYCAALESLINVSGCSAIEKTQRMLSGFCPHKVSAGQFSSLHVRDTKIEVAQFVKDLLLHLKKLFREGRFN
T3 sequence (P35225 other isoform, or with tags, fused parts or gaps): as above
mammalian-expressed (CHO cell) human IL-13, sequence (P35225 other isoform, or with tags, fused parts or gaps limits assumed): as the sequence (P35225 other isoform, or with tags, fused parts or gaps) above
E. coli-expressed recombinant Q130 human IL-13, sequence (P35225 35-146 limits assumed): as the sequence (P35225 other isoform, or with tags, fused parts or gaps) above, with R110Q counted along it

B1: monoclonal antibody 6A1 (antibody, IgG1, V domains shown)
VH: EIQLQQSVAELVRPGASVRLSCTASGFYIKDTYMHWVIQRPEQGLEWIGTIDPANGNTKYVPKFQGKATITADTSSNTAYLRLSSLTSEDTAIYYCARSIYDDYHYDDYYAMDYWGQGTSVTVSS
VL: DVLMTQTPLSLPVSLGDQASISCRSSQNIVHINGNTYLEWYLQKPGQSPKLLIYKISDRFSGVPDRFSGSGSGTDFTLKISRVEAEDLGVYYCFQGSHVPWTFGGGTKLEIK
notes: also called 6A1 parental mAb; parental mouse mAb 6A1
Question: How did the IC50 [1] turn out when B1 was run?
Answer: 0.056 µg/mL

Question: Does B1 bind [2]?
Answer: no binding

Question: And the Kd [3]?
Answer: 0.035 nM

Question: What about the koff [3] of the same binder?
Answer: 6.78e-05 s⁻¹

Question: And the kon [3]?
Answer: 1.96e+06 M⁻¹ s⁻¹

Question: What about the IC50 [4] of the same binder?
Answer: 0.039 µg/mL

Question: And the Kd [5]?
Answer: 0.032 nM

Question: What about the koff [5] of the same binder?
Answer: 7.2e-05 s⁻¹

Question: What about the kon [5] of the same binder?
Answer: 2.25e+06 M⁻¹ s⁻¹

Question: And the Kd [6]?
Answer: 0.0612 nM

Question: What about the koff [6] of the same binder?
Answer: 5.6e-05 s⁻¹

Question: What about the kon [6] of the same binder?
Answer: 914000 M⁻¹ s⁻¹

Question: What about the Kd [7] of the same binder?
Answer: 0.27 nM

Question: What about the koff [7] of the same binder?
Answer: 0.000184 s⁻¹

Question: What about the kon [7] of the same binder?
Answer: 682000 M⁻¹ s⁻¹

Question: What about the “ND50, TF-1 cell proliferation bioassay” value [8] of the same binder?
Answer: 0.04 µg/mL

Question: What about the “ND50, TF-1 cell proliferation bioassay” value [9] of the same binder?
Answer: 0.11 µg/mL

Question: And the “ND50, TF-1 cell proliferation bioassay” value [10]?
Answer: 0.0783 µg/mL

Question: And the “ND50, TF-1 cell proliferation bioassay” value [11]?
Answer: 0.037 µg/mL

Question: And the “absorbance at 490 nm” value (16 mer peptide 30)?
Answer: 0.062 A490

Question: What about the “absorbance at 490 nm” value (16 mer peptide 44) of the same binder?
Answer: 2.23 A490

B2: L1+A1 (antibody, human IgG1, kappa, V domains shown)
VH: QVQLVQSGAEVKKPGSSVKVSCKASGFYIKDTYMHWVRQAPGQGLEWMGTIDPANGNTKYVPKFQGRVTITADESTSTAYMELSSLRSEDTAVYYCARSIYDDYHYDDYYAMDYWGQGTLVTVSS
VL: DIVMTQSPLSLPVTPGEPASISCRSSQNIVHINGNTYLEWYLQKPGQSPRLLIYKISDRFSGVPDRFSGSGSGTDFTLKISRVEADDVGIYYCFQGSHVPWTFGQGTKLEIKR
notes: Humanised 6A1, VH construct A1 and VL construct L1, human gamma1 wild type / kappa constant regions; also called A1L1; humanised anti-IL-13 mAb L1+A1
Question: What does the source list for B2?
Answer: fold reduction in affinity against chimaeric 6A1 [12]: ~3 fold; Kd [13]: ~0.168 nM; koff [13]: 8.22e-05 s⁻¹; kon [13]: ~600000 M⁻¹ s⁻¹; Kd [3]: 0.3 nM; koff [3]: 0.000155 s⁻¹; kon [3]: 507000 M⁻¹ s⁻¹; IC50 [4]: 0.044 µg/mL; Kd [14]: 0.149 nM; koff [14]: 6.95e-05 s⁻¹; kon [14]: 466000 M⁻¹ s⁻¹
